The supplement of paper PMC9170038

Tests used:
[1] = system: MS2 coat protein; assay: apparent KD of MS2 coat protein, switch OFF state (with FMN for OFF switches, without FMN for ON switches); designed switch direction (-1 OFF switch, 1 ON switch): -1; higher = weaker reporter binding; conditions: FMN input: 0 or 200 uM; Eterna round: R93 (includes R88 designs)
Method in brief: (§1)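 Values are apparent KD, taken as the median for each design of fits to normalised binding curves from individual clusters. The designed RNA switches were transcribed on-chip from Illumina sequencing clusters and exposed to SNAP-549-labelled MS2 coat protein at twofold increasing amounts from 0.7 or 1.5 nM to 3 µM. Titration used 100 mM Tris-HCl pH 7.5, 80 mM KCl and 4 mM MgCl2, without or with constant ligand.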

[2] = system: MS2 coat protein; assay: apparent KD of MS2 coat protein, switch ON state; designed switch direction (-1 OFF switch, 1 ON switch): -1; higher = weaker reporter binding; conditions: FMN input: 0 or 200 uM; Eterna round: R93 (includes R88 designs)
Method in brief: as §1

Sequence	apparent KD of MS2 coat protein [1]	apparent KD of MS2 coat protein [2]
AAAACGUGAGGAUAUGCACCAAAAAAAAAAAAACGGGUACGACAUGAGGAUCACCCAUGUAGAAGGCACGAAAA [Frodo Flailing 7 - Jieux - Exclusion 2]	39.4 nM	56 nM
AAGAAACAUGAGGAUCACCCAUGUCAGGAUAUAGAAAAGAAAAGAAAAGAAAGAAGAACUAGAAGGGACAAAGG [Menkare]	34 nM	34.1 nM
CUCAUGUAAGGAUAUCAGUAGUAAAAAAAUAAAAUUACUACUGAGAAGGUACAUGAGGAUCACCCAUGUCCGGG [EX4 374: Super Stable 74]	18.3 nM	21.7 nM
CAGUACUGAGGAUAUACAUGAGGAUCACCCAUGUGUUCCAGCUAGGAAACUAGCAAAUGUAGAAGGCAGUACUG [Ex3: 827]	85.8 nM	183 nM
AAAAAACAUGAGGAUCACCCAUGUGAGGAUAUGGAAAGAAAAAAAAAGAAAGAAAAAACCAGAAGGCACAAAAA [Amethyst 30]	23.8 nM	42.8 nM
CUCAAGUCAGGAUAUAAAAGAAAAGAAGAGAAAGAAAAGAAUUAGAAGGGACAUGAGGAUCACCCAUGUAAGAA [EteRNA is fun!]	60.6 nM	66.9 nM
AUCUACCUAGGAUAUACAUGAGGAUCACCCAUGUACAGAUACAACAAGGGAAACACACGUAGAAGGAGGAAGAU [JR_Exc003_Sub1206]	60.8 nM	25.8 nM
CGCUAGUCAGGAUAUACGAACAUGUCAAAAGACGUGAAGGGACAUGAGGAUCACCCAUGUAGAAGGGACUAGCG [Mat - Exclusion 2 - JL mod - D4]	131 nM	30.2 nM
AAAGGACGAGGAUAUACAUGAGGAUCACCCAUGUAAAAAACAUAAUAAAAGAAUUUAUGUAGAAGGCGUCCAAA [69%, Moding Meechl, 1]	17.1 nM	18.1 nM
AAAAAGAUAGGAUAUACGUACAUGUCGAAAGACGUGAAGGGACAUGAGGAUCACCCAUGUAGAAGGAUUAAAAA [Mat - Exclusion 2 - JL mod - D90]	14.5 nM	43.8 nM
UUUUGACAUGAGGAUCACCCAUGUCAGGAUAUAGUAGGAAAAAAAAAAAAAAAAACUACUAGAAGGGAUAUGGA [Design 15: Not So Super Stable 1]	40.2 nM	21.7 nM
AAAGAACAUGAGGAUCACCCAUGUGAGGAUAUACGAGCGUGAGAAAGAUAAAACGAGCGUAGAAGGCACAAGAA [JR_Exclusion1_Sub4]	49.3 nM	43.4 nM
AAAAAUGCAGGAUAUACGAACAUGUCGAAAGACGUGAAGGGACAUGAGGAUCACCCAUGUAGAAGGGUAAAGAA [Mat - Exclusion 2 - JL mod - D74]	62.5 nM	264 nM
GUAAACCUAGGAUAUACAUGAGGAUCACCCAUGUAAAAUUUCAUAAAAAGAAAAUCAAGUAGAAGGAGGUAGAU [JR_Exc003_Sub1223]	24.8 nM	17.3 nM
AAGACUAGAGGAUAUACAUGAGGAUCACCCAUGUAACUGUCAGGUGACUGACGGAGAUGUAGAAGGCUAGUCAA [Wider Swing]	41.2 nM	17.2 nM
AAAAAGUCAGGAUAUACGAAAGUGCGAAAGCACAAAAGGAAACAUGAGGAUCACCCAUGUAGAAGGGACAAGAA [Married to this design, 61% 1]	32.8 nM	45.4 nM
AACAAACAUGAGGAUCACCCAUGUCAGGAUAUCGAAACAACAAACAACAAACAACAAACGAGAAGGGACAACAA [e1]	23.8 nM	19.2 nM
AAAAAACAUGAGGAUCACCCAUGUGAGGAUAUUGGUAUUCAAGAUAUAAUCUUAAUAGCGAGAAGGCGCAAAAA [Brourd 613 Mod 17 - Jieux - Exclusion 1]	21.9 nM	24.1 nM
